Assay results taken from US20190367631A1 (Regeneron, published 2019).

Key:
[1] = biological target: T1, mouse MSR1 extracellular domain expressed with a N-terminal nonahistidine tag (His9-mMSR1); R&D Systems, Cat … (mouse, UniProt P30204 79-458); experiment: BLI Octet, 25 C, antibody captured
T1 construct: extracellular domain; not shown: N-terminal nonahistidine tag
T1 sequence (looked up): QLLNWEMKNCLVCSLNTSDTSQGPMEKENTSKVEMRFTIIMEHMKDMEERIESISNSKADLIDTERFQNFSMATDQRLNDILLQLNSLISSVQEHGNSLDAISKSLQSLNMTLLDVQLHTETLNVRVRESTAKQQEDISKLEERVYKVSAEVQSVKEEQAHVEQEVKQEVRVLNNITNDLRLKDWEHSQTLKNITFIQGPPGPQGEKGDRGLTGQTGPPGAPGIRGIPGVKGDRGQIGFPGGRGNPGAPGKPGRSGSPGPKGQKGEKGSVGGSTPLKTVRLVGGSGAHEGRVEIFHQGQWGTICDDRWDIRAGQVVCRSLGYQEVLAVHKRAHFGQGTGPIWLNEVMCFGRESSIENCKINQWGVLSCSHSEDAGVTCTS

[2] = biological target: T2, human MSR1 extracellular domain expressed with a N-terminal nonahistidine tag (His9-hMSR1); R&D Systems, Cat … (human, UniProt P21757 77-451); experiment: BLI Octet, 25 C, antibody captured
T2 construct: extracellular domain; also called His-hMSR1; 9xHis-hMSR1; not shown: N-terminal nonahistidine tag
T2 sequence (looked up): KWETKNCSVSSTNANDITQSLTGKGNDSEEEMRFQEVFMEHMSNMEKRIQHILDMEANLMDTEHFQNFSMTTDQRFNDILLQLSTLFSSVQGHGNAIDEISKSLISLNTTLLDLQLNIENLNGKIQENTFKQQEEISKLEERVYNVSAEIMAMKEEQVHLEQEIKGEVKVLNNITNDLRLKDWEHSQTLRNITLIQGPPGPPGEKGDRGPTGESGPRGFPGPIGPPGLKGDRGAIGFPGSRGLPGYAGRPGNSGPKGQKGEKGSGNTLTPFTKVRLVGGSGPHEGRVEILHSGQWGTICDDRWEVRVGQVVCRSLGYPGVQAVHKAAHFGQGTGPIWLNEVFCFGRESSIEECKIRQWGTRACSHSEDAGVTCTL

[3] = biological target: T3, monkey MSR1 extracellular domain expressed with a N-terminal hexahistidine-myc-myc tag (HMM-mfMSR1) (monkey (Macaca fascicularis)); experiment: BLI Octet, 25 C, antibody captured
T3 chain: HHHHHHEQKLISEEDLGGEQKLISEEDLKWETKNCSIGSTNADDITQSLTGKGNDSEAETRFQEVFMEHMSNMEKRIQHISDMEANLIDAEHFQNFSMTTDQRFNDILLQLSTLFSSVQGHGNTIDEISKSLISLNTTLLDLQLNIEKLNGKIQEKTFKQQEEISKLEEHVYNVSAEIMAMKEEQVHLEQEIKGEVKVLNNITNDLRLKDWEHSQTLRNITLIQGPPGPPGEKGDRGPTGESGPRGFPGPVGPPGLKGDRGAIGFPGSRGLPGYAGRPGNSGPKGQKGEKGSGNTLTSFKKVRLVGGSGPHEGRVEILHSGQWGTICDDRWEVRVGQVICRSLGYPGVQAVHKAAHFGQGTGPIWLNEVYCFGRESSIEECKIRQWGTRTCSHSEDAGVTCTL
Procedure: (§1) Binding affinities and kinetic constants of human anti-MSR1 antibodies for different MSR1 reagents were determined using a real time, label-free bio-layer interferometry assay on an OCTET® HTX biosensor platform (Pall FortéBio Corp., Menlo Park, Calif.). The experiment was performed at 25° C. in 10 mM HEPES, 150 mM NaCl, 3 mM EDTA, 0.05% v/v Surfactant Tween-20, and 1 mg/mL BSA, pH7.4 (HBS-EBT) buffer with the plate shaking at the speed of 1000 rpm. […] The anti-MSR1 monoclonal antibodies were captured by dipping either anti-human Fc (AHC) or anti-mouse Fc (AMC) Octet biosensors in wells containing 5 pg/mL or 10 pg/mL of anti-MSR1 monoclonal antibody for 45-90 seconds. […] The binding of different MSR1 reagents to the captured anti-MSR1 monoclonal antibody was measured for 4 minutes and the dissociation of monoclonal antibody bound MSR1 reagent was monitored for 8-10 minutes in HBS-EBT buffer.
(§2) The association rate (kₐ) and dissociation rate (kd) were determined by fitting the real-time binding sensorgrams to a 1:1 binding model with mass transport limitation using Scrubber 2.0c curve-fitting software. Binding dissociation equilibrium constant (KD) and dissociative half-life (t½) were calculated from the kinetic rates as:

[4] = biological target: T2, human MSR1 extracellular domain …; experiment: SPR Biacore, 37 C, antibody captured; kd fixed, no dissociation seen
Procedure: (§3) Binding affinities and kinetic constants of human anti-MSR1 antibodies for different MSR1 reagents were determined by real-time surface plasmon resonance (Biacore 4000). All binding studies were performed in 10 mM HEPES, 150 mM NaCl, 3 mM EDTA, and 0.05% v/v Surfactant Tween-20, pH 7.4 (HBS-ET) running buffer at 25° C. and 37° C.
as §2

[5] = biological target: T3, monkey MSR1 extracellular domain …; experiment: as above
Procedure: as §3, §2

[6] = biological target: T1, mouse MSR1 extracellular domain …; experiment: BLI Octet, 25 C, antibody captured; kd fixed, no dissociation seen
Procedure: as §1, §2

[7] = biological target: T3, monkey MSR1 extracellular domain …; experiment: SPR Biacore, 25 C, antibody captured;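 also: rates from 1:1 fit with mass transport limitation of real-time sensorgrams, HEPES-buffered saline with EDTA and Tween-20 at pH 7.4, KD and t½ derived from the kinetic rates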
Procedure: as §3, §2

[8] = biological target: T2, human MSR1 extracellular domain …; experiment: SPR Biacore, 25 C, antibody captured; kd fixed, no dissociation seen
Procedure: as §3, §2

[9] = biological target: T3, monkey MSR1 extracellular domain …; experiment: as above
Procedure: as §3, §2

[10] = biological target: T2, human MSR1 extracellular domain …; experiment: SPR Biacore, 37 C, antibody captured
Procedure: as §3, §2

[11] = biological target: T3, monkey MSR1 extracellular domain …; experiment: SPR Biacore, 37 C, antibody captured
Procedure: as §3, §2

B1: H2aM21229N (antibody, V domains shown)
VH: EVQLVESGGGLVKPGGSLRLSCAASGFTFSRYSMNWVRQAPGKGLEWVSSISSSSSYIYYGDTVKGRFTISRDNAKKSLYLQMNSLRAEDTAVYYCVRDRGQLVLYFDYWGQGTLVTVSS
VL: DIQMTQSPASLSTSIRDRVTITCRASLSISSFLNWFQQRPGKAPKLLIYVASNLQSGVPSRFSDSGSGTDFTLTISSLQPEDFATYYCQQNYSTPPITFGQGTRLEIK
notes: Human variable domains with mouse IgG2a Fc
Does B1 bind [1]?
Result: no binding (tested: 100 nM)

And the Kd [2]?
The Kd was 0.7 nM.

And the koff [2]?
The koff was 0.00021 s⁻¹.

And the kon [2]?
The kon was 300000 M⁻¹ s⁻¹.

What about the t½ [2] of the same binder?
The t½ was 0.917 h.

What about the Kd [3] of the same binder?
Its Kd is 16.4 nM.

What about the koff [3] of the same binder?
Its koff is 0.00222 s⁻¹.

What about the kon [3] of the same binder?
Its kon is 135000 M⁻¹ s⁻¹.

What about the t½ [3] of the same binder?
Its t½ is 0.0833 h.

B2: H1H21234N-N297Q (antibody, V domains shown)
VH: QVQLQESGPGLVKPSETLSLTCTVTGGSISRNYWSWIRQPPGKGLEWIGYIYYSGSIDYNPSLKSRVTISVDTSKNQFSLKLSSMTAADTAVYYCARDRWNWKYGMDVWGQGTTVIVSS
VL: EIVLTQSPGTLSLSPGERATLSCRASQTVRNNYLAWYHQKPGQAPRLLIYGASSRATGIPDRFSGSGSGTDFTLTISRLEPEDFTVYYCHQYGNSPWTFGQGTKMEIKR
notes: Human IgG1 Fc with N297Q point mutation (EU numbering)
What does the source list for B2?
Kd [4]: 0.0127 nM; koff [4]: ≤ 1e-05 s⁻¹; kon [4]: 787000 M⁻¹ s⁻¹; t½ [4]: 19.2 h; Kd [5]: 0.0133 nM; koff [5]: ≤ 1e-05 s⁻¹; kon [5]: 750000 M⁻¹ s⁻¹; t½ [5]: 19.2 h; Kd [6]: ≤ 1.31 nM; koff [6]: ≤ 5e-05 s⁻¹; kon [6]: 38200 M⁻¹ s⁻¹; t½ [6]: 3.85 h; Kd [7]: 0.0466 nM; koff [7]: 1.95e-05 s⁻¹; kon [7]: 408000 M⁻¹ s⁻¹; t½ [7]: 9.88 h; Kd [8]: ≤ 0.0201 nM; koff [8]: ≤ 1e-05 s⁻¹; kon [8]: 497000 M⁻¹ s⁻¹; t½ [8]: 19.2 h

B3: H1H21234N (antibody, V domains shown)
VH: QVQLQESGPGLVKPSETLSLTCTVTGGSISRNYWSWIRQPPGKGLEWIGYIYYSGSIDYNPSLKSRVTISVDTSKNQFSLKLSSMTAADTAVYYCARDRWNWKYGMDVWGQGTTVIVSS
VL: EIVLTQSPGTLSLSPGERATLSCRASQTVRNNYLAWYHQKPGQAPRLLIYGASSRATGIPDRFSGSGSGTDFTLTISRLEPEDFTVYYCHQYGNSPWTFGQGTKMEIKR
notes: Original human IgG1 Fc (no N297 mutation)
Which results are given for B3?
Kd [4]: 0.0148 nM; koff [4]: ≤ 1e-05 s⁻¹; kon [4]: 676000 M⁻¹ s⁻¹; t½ [4]: 19.2 h; Kd [5]: 0.0138 nM; koff [5]: ≤ 1e-05 s⁻¹; kon [5]: 726000 M⁻¹ s⁻¹; t½ [5]: 19.2 h; Kd [6]: ≤ 1.09 nM; koff [6]: ≤ 5e-05 s⁻¹; kon [6]: 46000 M⁻¹ s⁻¹; t½ [6]: 3.85 h; Kd [8]: ≤ 0.0166 nM; koff [8]: ≤ 1e-05 s⁻¹; kon [8]: 604000 M⁻¹ s⁻¹; t½ [8]: 19.2 h; Kd [9]: ≤ 0.0298 nM; koff [9]: ≤ 1e-05 s⁻¹; kon [9]: 336000 M⁻¹ s⁻¹; t½ [9]: 19.2 h

B4: H2aM25695N (antibody, V domains shown)
VH: QVQLQESGPGLVKPSETLSLTCTVTGGSISRNYWSWIRQPPGKGLEWIGYIYYSGSINYNPSLKSRVTISVDMSKNQFSLKLNSVTAADTAVYYCARDRWNWKYGMDVWGQGTTVIVSS
VL: EIVLTQSPGTLSLSPGERATLSCRASQTVRNSYLAWYHQKPGQAPRLLIYGASSRATGIPDRFSGSGSGTDFTLTISRLEPEDFAVYYCQQYGSSYWTFGQGTKMEIKR
notes: Human variable domains with mouse IgG2a Fc; tied by the numerical identifier
Does B4 bind [1]?
Result: no binding (tested: 100 nM)

And the Kd [2]?
Its Kd is 1.46 nM.

What about the koff [2] of the same binder?
Its koff is 0.000527 s⁻¹.

What about the kon [2] of the same binder?
Its kon is 360000 M⁻¹ s⁻¹.

What about the t½ [2] of the same binder?
The t½ was 0.367 h.

What about the Kd [3] of the same binder?
Its Kd is 1.83 nM.

What about the koff [3] of the same binder?
The koff was 0.000571 s⁻¹.

And the kon [3]?
Its kon is 312000 M⁻¹ s⁻¹.

What about the t½ [3] of the same binder?
Its t½ is 0.333 h.

B5: H2aM21235N (antibody, V domains shown)
VH: EVQLVESGGGLVQPGGSLRLSCAASGFTFSDHYMDWVRQAPGKGLEWVGRTRNKANSYTTEYAASVSGRFTISRDDSKNSLYLQMNSLKTEDTAVYYCTRAGIIGTLFDYWGQGTLVTVSS
VL: DIQMTQSPSSLSASVGDRVTITCRASQIIGRYLNWFQQKPGKVPKLLIYAASSLQRGVPSRFSGSGSGTDFTLTISSLQPEDFATYYCQQSYNTPPITFGQGTRLEIKR
notes: as for B4
Does B5 bind [1]?
Result: no binding (tested: 100 nM)

And the Kd [2]?
Its Kd is 0.378 nM.

What about the t½ [2] of the same binder?
The t½ was 4.2 h.

And the Kd [3]?
Its Kd is 0.612 nM.

And the t½ [3]?
Its t½ is 3.07 h.

B6: H1H27732P-N297Q (antibody, V domains shown)
VH: QLQLQESGPGLVKPSETLSLTCTVSGGSISSSTYYWGWIRQPPGKGLEWIGSFYYSGSTYYNPSLKSRVTISVGTSKNQFSLKLSSVTAADTAVYFCARGGLLGRPFVIWGQGTMVTVSS
VL: DIQMTQSPSSLSASVGDRVTITCRASQGIRNDLGWYQQKPGKAPKRLIYAASSLQSGVPSRFSGSGSGTEFTLTISSLQPEDFATYYCLQHNSYPLTFGGGTKVEIKR
notes: Human IgG1 Fc with N297Q point mutation
B6 was tested. Which Kd [7] did it give?
Its Kd is 0.248 nM.

And the t½ [7]?
The t½ was 6.07 h.

Does B6 bind [1]?
Result: no binding (tested: 50 nM)

And the Kd [8]?
The Kd was ≤ 0.0801 nM.

What about the t½ [8] of the same binder?
The t½ was 19.2 h.

And the Kd [10]?
The Kd was 0.111 nM.

What about the t½ [10] of the same binder?
Its t½ is 6.17 h.

And the Kd [11]?
Its Kd is 0.317 nM.

And the t½ [11]?
The t½ was 1.82 h.

B7: H2aM21228N (antibody, V domains shown)
VH: VQLVESGGGLVQPGGSLRLSCAASGFTFSDHYMDWVRQAPGKGLEWVGRTRNKANSHTTEYAASVSGRFTISRDDSKNSLYLQMNSLKTEDTAVYYCTRAGIIGTLFDYWGQGTLVTVSS
VL: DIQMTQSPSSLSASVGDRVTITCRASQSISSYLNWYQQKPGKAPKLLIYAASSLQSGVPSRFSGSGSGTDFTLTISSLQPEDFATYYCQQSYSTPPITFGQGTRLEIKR
notes: as for B4
Does B7 bind [1]?
Result: no binding (tested: 100 nM)

What about the Kd [2] of the same binder?
Its Kd is 0.954 nM.

What about the koff [2] of the same binder?
Its koff is 0.000116 s⁻¹.

And the kon [2]?
The kon was 122000 M⁻¹ s⁻¹.

What about the t½ [2] of the same binder?
Its t½ is 1.67 h.

What about the Kd [3] of the same binder?
The Kd was 1.45 nM.

What about the koff [3] of the same binder?
Its koff is 0.000146 s⁻¹.

And the kon [3]?
The kon was 100000 M⁻¹ s⁻¹.

What about the t½ [3] of the same binder?
Its t½ is 1.32 h.

B8: H1H27754P-N297Q (antibody, V domains shown)
VH: EVQLVESGGGLVQPGGSLRLSCAASGFTFRTYAMTWVRQAPGKGLDWVSAITGDGGNTYYADSVKGRFTISRDNSKNTLYLQMNSLRAEDTAIYYCAKDQRFSFALYYFDYWGQGTLVTVSS
VL: DIQMTQSPSSVSASVGDRVTITCRASQGISSWLAWYQQKPGNAPKLLIYAAFSLQSGVPSRFSGSGSGTDFTLTISSLQPEDFATYYCQQANNFPWTFGQGTKVEIKR
notes: as for B6
B8 was tested. Which Kd [7] did it give?
The Kd was 0.075 nM.

And the koff [7]?
Its koff is 1.76e-05 s⁻¹.

What about the kon [7] of the same binder?
Its kon is 235000 M⁻¹ s⁻¹.

What about the t½ [7] of the same binder?
The t½ was 10.9 h.

Does B8 bind [1]?
Result: no binding (tested: 50 nM)

And the Kd [8]?
Its Kd is ≤ 0.0344 nM.

What about the koff [8] of the same binder?
The koff was ≤ 1e-05 s⁻¹.

What about the kon [8] of the same binder?
The kon was 290000 M⁻¹ s⁻¹.

And the t½ [8]?
The t½ was 19.2 h.

What about the Kd [10] of the same binder?
Its Kd is 0.0381 nM.

And the koff [10]?
The koff was 2.53e-05 s⁻¹.

And the kon [10]?
The kon was 663000 M⁻¹ s⁻¹.

And the t½ [10]?
Its t½ is 7.62 h.

And the Kd [11]?
The Kd was 0.0504 nM.

What about the koff [11] of the same binder?
Its koff is 3.53e-05 s⁻¹.

What about the kon [11] of the same binder?
The kon was 701000 M⁻¹ s⁻¹.

What about the t½ [11] of the same binder?
Its t½ is 5.45 h.
